# Assay results: patent publication US20220331371A1, “DEVELOPMENT OF EMBRYONIC-LIKE TISSUE FROM STEM CELLS” (The Regents of the University of Michigan, priority 2019, published 2022)
# B1: Activin A: exogenous activin protein (R&D Systems) (protein, UniProt P08476 311-426, looked up)
# Inhibin beta A chain: GLECDGKVNICCKKQFFVSFKDIGWNDWIIAPSGYHANYCEGECPSHIAGTSGSSLSFHSTVINHYRMRGHSPFANLKSCCVPTKLRPMSMLYYDDGQNIIKKDIQNMIVEECGCS
# modifications: Inhibin beta A chain
# B2: WNT3A: exogenous Wnt protein (R&D Systems) (protein, UniProt P56704 19-352, looked up)
# Protein Wnt-3a: SYPIWWSLAVGPQYSSLGSQPILCASIPGLVPKQLRFCRNYVEIMPSVAEGIKIGIQECQHQFRGRRWNCTTVHDSLAIFGPVLDKATRESAFVHAIASAGVAFAVTRSCAEGTAAICGCSSRHQGSPGKGWKWGGCSEDIEFGGMVSREFADARENRPDARSAMNRHNNEAGRQAIASHMHLKCKCHGLSGSCEVKTCWWSQPDFRAIGDFLKDKYDSASEMVVEKHRESRGWVETLRPRYTYFKVPTERDLVYYEASPNFCEPNPETGSFGTRDRTCNVSSHGIDGCDLLCCGRGHNARAERRREKCRCVFHWCCYVSCQECTRVYDVHTCK
# B3: BMP4: Bone Morphogenic Protein 4 (R&D Systems) (protein, UniProt P12644 293-408, looked up)
# Bone morphogenetic protein 4: SPKHHSQRARKKNKNCRRHSLYVDFSDVGWNDWIVAPPGYQAFYCHGDCPFPLADHLNSTNHAIVQTLVNSVNSSIPKACCVPTELSAISMLYLDEYDKVVLKNYQEMVVEGCGCR
# What was measured:
# Format in all cases: cell-based, human
# [1] = tested on: PrePS-EPI-like cells in P-ELS; assay: Posterior primitive streak-like cell development in P-ELS with antagonists in the induction channel; details: prolonged culture to t=48 h, IWR1 10 μM in induction channel
# Excerpt: (§1) Cell lines. hPSC lines used in this study include H1 human ES cell (WA01, WiCell; NIH registration number: 0043), H9 human ES cell (WA09, WiCell; NIH registration number: 0062) and 1196a (a human iPSC line from the University of Michigan Pluripotent Stem Cell Core31). All hPSC lines have been authenticated by original sources as well as in-house by immunostaining for pluripotency markers and successful differentiation to the three germ layers. All hPSC lines are maintained in a feeder-free system for at least ten passages and authenticated as karyotypically normal. Karyotype analysis was performed by Cell Line Genetics. All hPSC lines are tested negative for mycoplasma contamination (LookOut Mycoplasma PCR Detection Kit, Sigma-Aldrich). Cell culture. hPSCs were maintained in a standard feeder-free culture system using mTeSR medium (mTeSR; STEMCELL Technologies) or TeSR-E8 medium (Essential 8 or E8; STEMCELL Technologies) and lactate dehydrogenase-elevating virus (LDEV)-free, human ES cell-qualified reduced growth factor basement membrane matrix Geltrex (Thermo Fisher Scientific; derived from Engelbreth-Holm-Swarm tumors similarly to Matrigel). Cell cultures were visually examined during each passage to ensure absence of spontaneously differentiated, mesenchymal-like cells in culture. All hPSCs were used before reaching P70. Device fabrication. The microfluidic device consists of a polydimethylsiloxane (PDMS) structure layer bonded to a coverslip. The PDMS structure layer is made by mixing PDMS curing agent and base polymer (Sylgard 184; Dow Coming) at a ratio of 1:10 before casting PDMS prepolymer onto a microfabricated silicon mold and baking at 110° C. for 40 min. Medium reservoirs (8 mm in diameter) and gel-loading ports (1.2 mm in diameter) were then punched into the PDMS structure layer using Harris Uni-Core punch tools (Ted Pella). After cleaning with ethanol and air plasma activation, the PDMS structure layer was bonded to a coverslip before baking at 80° C. overnight. Before usage, the microfluidic device was sterilized under UV light for 30 min. […]
# [2] = tested on: hPGCLCs in P-ELS; assay: hPGCLC specification in P-ELS; details: P-ELS treated with 0.4 μM or 2 μM
# Excerpt: as §1, with “fabrication.” for “fabrication. The microfluidic device consists of a polydimethylsiloxane (PDMS) structure layer bonded to a coverslip. The PDMS structure layer is made by mixing PDMS curing agent and base polymer (Sylgard 184; Dow Coming) at a ratio of 1:10 before casting PDMS prepolymer onto a microfabricated silicon mold and baking at 110° C. for 40 min. Medium reservoirs (8 mm in diameter) and gel-loading ports (1.2 mm in diameter) were then punched into the PDMS structure layer using Harris Uni-Core punch tools (Ted Pella). After cleaning with ethanol and air plasma activation, the PDMS structure layer was bonded to a coverslip before baking at 80° C. overnight. Before usage, the microfluidic device was sterilized under UV light for 30 min.”
# [3] = tested on: embryonic-like sacs (P-ELS, A-ELS); assay: Microfluidic generation of asymmetric embryonic-like sacs with morphogens in the induction channel; details: for Cyst phenotype obtained: 50 ng ml^−1 each, supplemented into the induction channel
# Excerpt: Cell lines. hPSC lines used in this study include H1 human ES cell (WA01, WiCell; NIH registration number: 0043), H9 human ES cell (WA09, WiCell; NIH registration number: 0062) and 1196a (a human iPSC line from the University of Michigan Pluripotent Stem Cell Core31). All hPSC lines have been authenticated by original sources as well as in-house by immunostaining for pluripotency markers and successful differentiation to the three germ layers. All hPSC lines are maintained in a feeder-free system for at least ten passages and authenticated as karyotypically normal. Karyotype analysis was performed by Cell Line Genetics. All hPSC lines are tested negative for mycoplasma contamination (LookOut Mycoplasma PCR Detection Kit, Sigma-Aldrich). Cell culture. hPSCs were maintained in a standard feeder-free culture system using mTeSR medium (mTeSR; STEMCELL Technologies) or TeSR-E8 medium (Essential 8 or E8; STEMCELL Technologies) and lactate dehydrogenase-elevating virus (LDEV)-free, human ES cell-qualified reduced growth factor basement membrane matrix Geltrex (Thermo Fisher Scientific; derived from Engelbreth-Holm-Swarm tumors similarly to Matrigel). Cell cultures were visually examined during each passage to ensure absence of spontaneously differentiated, mesenchymal-like cells in culture. All hPSCs were used before reaching P70. Device fabrication. The microfluidic device consists of a polydimethylsiloxane (PDMS) structure layer bonded to a coverslip. The PDMS structure layer is made by mixing PDMS curing agent and base polymer (Sylgard 184; Dow Coming) at a ratio of 1:10 before casting PDMS prepolymer onto a microfabricated silicon mold and baking at 110° C. for 40 min. Medium reservoirs (8 mm in diameter) and gel-loading ports (1.2 mm in diameter) were then punched into the PDMS structure layer using Harris Uni-Core punch tools (Ted Pella). After cleaning with ethanol and air plasma activation, the PDMS structure layer was bonded to a coverslip before baking at 80° C. overnight. Before usage, the microfluidic device was sterilized under UV light for 30 min. Geltrex diluted in mTeSR (8 mg ml^−1) was then injected into the central gel channel and allowed to cure for 10 min at 37° C. in an incubator. The central gel channel was separated from the cell loading and induction channels by trapezoid-shaped supporting posts. Diluted Geltrex matrix was contained in the gel channel by supporting posts owing to surface tension. Upon gelation, Geltrex matrix contracts, generating concave Geltrex pockets between supporting posts. mTeSR medium was immediately added to medium reservoirs to fill both the cell loading and induction channels. The microfluidic device was then incubated at 37° C. and 5% CO2, for 24 h to stabilize the Geltrex matrix in the gel channel. Microfluidic assays. Colonies of hPSCs were dissociated by Accutasc. (Sigma-Aldrich) at 37° C., for 10 min before being suspended in mTeSR as single cells. Cells were then centrifuged and resuspended in mTeSR, containing 10 μM Y27632 (Tocris), a ROCK inhibitor that prevents dissociation-induced apoptosis of hPSCs32, at a concentration of 8×10^6 cells per ml. After aspirating mTeSR from medium reservoirs, 10 μl hPSC suspension was introduced into the cell-loading channel (t=−18 h), The microfluidic device was then tilted 90° for 10 min to allow cell settlement into Geltrex pockets and their clustering and adhesion to Geltrex matrix. Medium reservoirs were then refilled with fresh mTeSR medium containing 10 μM Y27632. […]
molecule,measurement,setting,value
O=C(Nc1cccc2cccnc12)c1ccc(N2C(=O)[C@@H]3[C@H](C2=O)[C@@H]2C=C[C@H]3C2)cc1 [IWR1],Effect on progressive development of P-ELS,[1],does not affect
O=C(NNc1nc2cc(F)ccc2n2cccc12)c1cnccn1 [SC144],Effect on hPGCLC specification,[2],did not affect
B1,Cyst phenotype obtained,[3],cysts containing OCT4^+NANOG^+EPILCs intermixed with EOMES^+T^+CDX2^− anterior primitive streak-like cells
B2,Cyst phenotype obtained,[3],"columnar epiblast-like cysts containing OCT4^+NANOG^+, COX2^−EOMES^−T^− EPILCs"
same,Requirement for embryonic-like sac formation,"[3]; induction channel, with or without BMP4",dispensable
B3,Cysts differentiated into asymmetrical E-cadherin+ sacs (P-ELS),"[3]; BMP4 50 ng ml^−1 in induction channel from t=0 h, t=36 h",92%
same,Cysts patterned to amniotic ectoderm-like fate (A-ELS),"[3]; BMP4 in induction channel, IWP2 and noggin in cell-loading channel, t=36 h",96%
